Assay [1] addresses FcgRIIIa receptor (CD16a) (human) (UniProt P08637). The experiment in a line: cell-based or functional assay.
For assay [2], the target named is FcgRIIIa receptor (CD16a) on human NK cells (human) (UniProt P08637). The assay can be described thus: cell-based or functional assay.
Assay [3] addresses C1q complement (rabbit serum as complement source) (rabbit). The experiment in a line: cell-based or functional assay.
The target is the same in assay [4]. The assay can be described thus: cell-based or functional assay. The source holds these as a separate data set.
In assay [5] the target is FcgRIIIa receptor (CD16a) on human NK cells (human) (UniProt P08637). The assay can be described thus: cell-based or functional assay. The source holds these as a separate data set.
The target of assay [6] is C1q complement (rabbit serum as complement source) (rabbit). The assay can be described thus: cell-based or functional assay. This is another data set of the same source.
In assay [7] the target is CD64 (UniProt P12314). The assay can be described thus: ELISA, purified IgG on coated receptor, ratio against wild-type. In general terms: In an ELISA, binding on a coated surface is turned into a signal by an enzyme label.
Sequence of CD64 (P12314 16-288 limits assumed): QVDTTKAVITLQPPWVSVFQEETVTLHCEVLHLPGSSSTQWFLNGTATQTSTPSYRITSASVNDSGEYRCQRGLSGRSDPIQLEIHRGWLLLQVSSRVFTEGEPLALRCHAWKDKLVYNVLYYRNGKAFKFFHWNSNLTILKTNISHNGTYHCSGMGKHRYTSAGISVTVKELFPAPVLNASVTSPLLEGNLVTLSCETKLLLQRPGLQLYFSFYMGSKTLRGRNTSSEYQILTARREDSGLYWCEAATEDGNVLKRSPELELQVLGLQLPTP
Assay [8] concerns the target CD32b (FcgRIIb receptor) (human) (UniProt P31994). The description is as above.
The target in assay [9] is CD32aR (FcgRIIa receptor, R at position 131) (human) (UniProt P12318). The description is as above.
The target in assay [10] is CD32aH (FcgRIIa receptor, H at position 131) (human) (UniProt P12318). The assay is described as above.
Sequence of CD32aH (FcgRIIa receptor, H at position 131) (human) (P12318 34-217): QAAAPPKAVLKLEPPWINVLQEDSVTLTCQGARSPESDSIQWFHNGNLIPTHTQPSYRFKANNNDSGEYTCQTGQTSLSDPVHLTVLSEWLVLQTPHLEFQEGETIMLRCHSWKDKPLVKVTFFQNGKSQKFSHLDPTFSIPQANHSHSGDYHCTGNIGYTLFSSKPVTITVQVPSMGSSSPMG

Data on 15 substances can be found in US20180030111A1.

Like-named read-outs stand apart in the source and are kept apart here.

Sequence of CD32b (FcgRIIb receptor) (human) (P31994 46-217): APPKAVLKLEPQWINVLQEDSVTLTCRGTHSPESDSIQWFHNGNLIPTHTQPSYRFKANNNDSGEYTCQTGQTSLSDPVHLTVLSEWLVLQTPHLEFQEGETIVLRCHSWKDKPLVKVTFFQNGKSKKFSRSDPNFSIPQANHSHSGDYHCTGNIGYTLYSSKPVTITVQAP
Sequence of FcgRIIIa receptor (CD16a) on human NK cells (human) (P08637 17-254): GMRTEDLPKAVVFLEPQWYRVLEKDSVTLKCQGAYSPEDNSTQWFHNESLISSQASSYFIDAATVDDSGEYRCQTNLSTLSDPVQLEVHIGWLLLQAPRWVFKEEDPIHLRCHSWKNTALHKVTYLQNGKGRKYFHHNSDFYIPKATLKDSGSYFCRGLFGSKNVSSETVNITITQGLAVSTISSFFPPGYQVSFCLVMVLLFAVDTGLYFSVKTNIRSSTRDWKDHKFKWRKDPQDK
Sequence of FcgRIIIa receptor (CD16a) (human) (P08637 17-254): as above

Turning to IgG-WT (antibody), in assay [1], the ADCC EC50: Antibody concentration (ng/ml) giving 50% lysis of an internal control came out at 12.3 ng/mL and the ADCC, Ratio [WT]/[antibody] stood at 1.

Take “anti-CD20 IgG1 with wild-type Fc (IgG-WT) (antibody)”: the ADCC, EC50: Antibody concentration (ng/ml) giving 50% maximum lysis of an internal control in [2] worked out at 0.45 ng/mL. The same substance showed a CDC, Antibody concentration (ng/ml) giving 50% lysis of an internal control in assay [3] of 237 ng/mL. In addition, in [4], the CDC, Antibody concentration (ng/ml) giving 50% lysis of an internal control stood at 262 ng/mL and the CDC, Ratio [WT]/[antibody] amounted to 1. For the same substance, in assay [5], the ADCC, EC45: Antibody concentration (ng/ml) giving 45% maximum lysis of an internal control is 1.6 ng/mL; the ADCC, EC50: Antibody concentration (ng/ml) giving 50% maximum lysis of an internal control came to 10.5 ng/mL; the ADCC, Ratio [WT]/[antibody] was determined as 1. The CDC, Antibody concentration (ng/ml) giving 50% lysis of an internal control in assay [6] came out at 133 ng/mL.

With “anti-CD20 IgG variant A3A-31 (K334R, L410R) (antibody)”, in [2], the ADCC, EC50: Antibody concentration (ng/ml) giving 50% maximum lysis of an internal control was 1.84 ng/mL and the ADCC, Ratio [WT]/[antibody] came out at 0.24. Also, in [4], the CDC, Antibody concentration (ng/ml) giving 50% lysis of an internal control is 108 ng/mL and the CDC, Ratio [WT]/[antibody] was determined as 2.42.

“anti-CD20 IgG variant A3A-105 (G316D, K326E) (antibody)” gave an ADCC, EC50: Antibody concentration (ng/ml) giving 50% maximum lysis of an internal control in [2] of 1.37 ng/mL.

For “anti-CD20 IgG variant A3A-173 (K248E, K334R, A378V) (antibody)”, in assay [2], the ADCC, EC50: Antibody concentration (ng/ml) giving 50% maximum lysis of an internal control amounted to 1.38 ng/mL and the ADCC, Ratio [WT]/[antibody] stood at 0.33. For the same substance, in assay [4], the CDC was 29.5; the CDC, Antibody concentration (ng/ml) giving 50% lysis of an internal control came to 16 ng/mL; the CDC, Ratio [WT]/[antibody] was 16.4. In assay [5], this substance registered an ADCC of 0.3. Moreover, the ELISA ratio (purified antibodies) in assay [7] came out at 1.2. Besides, in [8], the ELISA ratio (purified antibodies) was 1.3. Also, the ELISA ratio (purified antibodies) in assay [9] turned out to be 1.3. Also, the ELISA ratio (purified antibodies) in assay [10] was determined as 0.95.

On to “anti-CD20 IgG variant J3A-06 (A378T, V397M, V412M) (antibody)”, for which, in [3], the CDC, Antibody concentration (ng/ml) giving 50% lysis of an internal control worked out at 64.1 ng/mL and the CDC, Ratio [WT]/[antibody] came to 6.7. The substance also gave a CDC in [4] of 3.7. In addition, in [5], the ADCC was 8.3; the ADCC, EC50: Antibody concentration (ng/ml) giving 50% maximum lysis of an internal control worked out at 1.27 ng/mL; the ADCC, Ratio [WT]/[antibody] amounted to 8.28. Moreover, the ELISA ratio (purified antibodies) in assay [7] is 1.3. Also, the ELISA ratio (purified antibodies) in [8] came to 2.4. In addition, the ELISA ratio (purified antibodies) in assay [9] was determined as 2. Also, in [10], the ELISA ratio (purified antibodies) is 0.84.

As to “anti-CD20 IgG variant J3A-16 (N286Y, P352S, A378V) (antibody)”, in [3], the CDC, Antibody concentration (ng/ml) giving 50% lysis of an internal control turned out to be 132 ng/mL and the CDC, Ratio [WT]/[antibody] was found to be 1.79. This substance gave a CDC in assay [4] of 1.8. Further, in [5], the ADCC is 8.3; the ADCC, EC50: Antibody concentration (ng/ml) giving 50% maximum lysis of an internal control was determined as 1.27 ng/mL; the ADCC, Ratio [WT]/[antibody] amounted to 8.28. The ELISA ratio (purified antibodies) in assay [7] was 1.3. Moreover, in assay [8], the ELISA ratio (purified antibodies) was 1.7. Besides, the ELISA ratio (purified antibodies) in [9] was 1.7. Moreover, in assay [10], the ELISA ratio (purified antibodies) amounted to 2.61.

As for “anti-CD20 IgG variant J3A-28 (E333G, A378T, V397M) (antibody)”, in assay [3], the CDC, Antibody concentration (ng/ml) giving 50% lysis of an internal control is 31 ng/mL and the CDC, Ratio [WT]/[antibody] came to 7.64. In [4], this substance returned a CDC of 7.6. In addition, in [5], the ADCC turned out to be 18.4; the ADCC, EC50: Antibody concentration (ng/ml) giving 50% maximum lysis of an internal control was found to be 0.57 ng/mL; the ADCC, Ratio [WT]/[antibody] worked out at 18.4. In assay [7], the ELISA ratio (purified antibodies) came out at 1.3. Besides, the ELISA ratio (purified antibodies) in assay [8] is 1.6. Moreover, the ELISA ratio (purified antibodies) in assay [9] was 1.3. Besides, in assay [10], the ELISA ratio (purified antibodies) is 1.1.

Consider “anti-CD20 IgG variant J3B-115 (T359A, S383R, V397M) (antibody)”, for which the ADCC, EC50: Antibody concentration (ng/ml) giving 50% maximum lysis of an internal control in [2] was determined as 0.57 ng/mL. Besides, in [4], the CDC turned out to be 3.2 and the CDC, Antibody concentration (ng/ml) giving 50% lysis of an internal control turned out to be 145 ng/mL.

“anti-CD20 IgG variant J3B-118A (P396L, N421T, A378V) (antibody)” registered a CDC, Antibody concentration (ng/ml) giving 50% lysis of an internal control in [3] of 21.6 ng/mL. The CDC, Ratio [WT]/[antibody] in assay [3] is 11. Also, in assay [4], the CDC was found to be 11. The same substance had an ADCC in assay [5] of 10.8. This substance also displayed an ADCC, EC50: Antibody concentration (ng/ml) giving 50% maximum lysis of an internal control in assay [5] of 0.97 ng/mL. Moreover, in assay [5], the ADCC, Ratio [WT]/[antibody] came to 10.8. The ELISA ratio (purified antibodies) in [7] came to 1.4; in assay [8], 3.7; in assay [9] it was 1.8; in [10] it was 2.7.

On to “anti-CD20 IgG variant K3B-01 (N315D, N361H, P396L) (antibody)”, for which, in assay [3], the CDC, Antibody concentration (ng/ml) giving 50% lysis of an internal control was 59.6 ng/mL and the CDC, Ratio [WT]/[antibody] worked out at 3.97. The CDC in assay [4] came to 4. In assay [5], the ADCC came to 15.2; the ADCC, EC50: Antibody concentration (ng/ml) giving 50% maximum lysis of an internal control was found to be 0.69 ng/mL; the ADCC, Ratio [WT]/[antibody] came to 15.2. Besides, in [7], the ELISA ratio (purified antibodies) turned out to be 2.3. In addition, the ELISA ratio (purified antibodies) in assay [8] turned out to be 1. Further, the ELISA ratio (purified antibodies) in [9] stood at 1. Besides, the ELISA ratio (purified antibodies) in [10] came to 5.7.

Take “anti-CD20 IgG variant K3B-90 (V308A, K334R, A378V, K447N) (antibody)”: in assay [2], the ADCC, EC50: Antibody concentration (ng/ml) giving 50% maximum lysis of an internal control stood at 0.75 ng/mL and the ADCC, Ratio [WT]/[antibody] was determined as 0.6. In assay [4], the CDC stood at 20.4; the CDC, Antibody concentration (ng/ml) giving 50% lysis of an internal control is 23.1 ng/mL; the CDC, Ratio [WT]/[antibody] worked out at 11.3. In assay [5], the ADCC came to 0.6. In addition, the ELISA ratio (purified antibodies) in assay [7] is 1.5. Also, the ELISA ratio (purified antibodies) in assay [8] was 1.1. In addition, the ELISA ratio (purified antibodies) in assay [9] is 1.2. In addition, in [10], the ELISA ratio (purified antibodies) came out at 1.2.

Take “anti-CD20 IgG variant N3A-87 (K290E, K320E, T350A, P396L) (antibody)”: the CDC in assay [4] amounted to 1.3. In [5], this substance registered an ADCC of 1. For the same substance, in assay [5], the ADCC, EC45: Antibody concentration (ng/ml) giving 45% maximum lysis of an internal control turned out to be 1 ng/mL. Further, the ADCC, Ratio [WT]/[antibody] in assay [5] came out at 1. The ELISA ratio (purified antibodies) in assay [7] was 1.5; in assay [8], 9; in assay [9], 3.7; in [10], 3.92. The substance further showed a CDC, Antibody concentration (ng/ml) giving 50% lysis of an internal control in [6] of 106 ng/mL. Moreover, the CDC, Ratio [WT]/[antibody] in assay [6] came to 1.25.

On to “anti-CD20 IgG variant O3A-05 (K290E, T366A, A378V) (antibody)”, for which the CDC in [4] is 1.5. Besides, the ADCC in [5] amounted to 8. In [5], this substance gave an ADCC, EC45: Antibody concentration (ng/ml) giving 45% maximum lysis of an internal control of 0.2 ng/mL. Further, the ADCC, Ratio [WT]/[antibody] in assay [5] stood at 8. Besides, the ELISA ratio (purified antibodies) is 1.2 in assay [7], 4.5 in [8], 3.3 in assay [9] and 4.02 in [10]. The substance further yielded a CDC, Antibody concentration (ng/ml) giving 50% lysis of an internal control in assay [6] of 91 ng/mL. In assay [6], the CDC, Ratio [WT]/[antibody] is 1.46.

In assay [4], “anti-CD20 IgG variant Q3A-39 (N286I, P396L, N421T) (antibody)” displayed a CDC of 2.2. In assay [5], the ADCC was determined as 5.3; the ADCC, EC45: Antibody concentration (ng/ml) giving 45% maximum lysis of an internal control stood at 0.3 ng/mL; the ADCC, Ratio [WT]/[antibody] was 5.33. In addition, the ELISA ratio (purified antibodies) in [7] came out at 1.5. Moreover, the ELISA ratio (purified antibodies) in [8] turned out to be 3.8. For the same substance, in assay [9], the ELISA ratio (purified antibodies) worked out at 2.3. The ELISA ratio (purified antibodies) in [10] is 4.83. In addition, in assay [6], the CDC, Antibody concentration (ng/ml) giving 50% lysis of an internal control turned out to be 61 ng/mL and the CDC, Ratio [WT]/[antibody] was determined as 2.18.
